Here are results for 3 molecules from US5753435.

Assay [1] deals with δ-(L-α-aminoadipyl)-L-cysteinyl-D-valine (ACV) synthetase purified from Acremonium chrysogenum C10 (ATCC 48272) (Acremonium chrysogenum) (UniProt P25464).
For assay [2], the target named is T1, low molecular weight (LMW) polypeptide component of the oxido reductase system of Penicillium chrysogenum (Penicillium chrysogenum).
T1 sequence: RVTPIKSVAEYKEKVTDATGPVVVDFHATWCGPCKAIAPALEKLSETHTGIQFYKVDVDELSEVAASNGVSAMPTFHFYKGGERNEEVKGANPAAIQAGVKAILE

The target in assay [3] is thioredoxin obtained from Spirulina platensis (Spirulina platensis).
For assay [4], the target named is T1, low molecular weight (LMW) polypeptide component of the oxido reductase system of Penicillium chrysogenum (Penicillium chrysogenum). The source holds these as a separate data set.
The target is the same in assay [5]. The source holds these as a separate data set.
Assay [6] concerns the target thioredoxin obtained from Spirulina platensis (Spirulina platensis). The source holds these as a separate data set.
For assay [7], the target named is insulin.

B1: low molecular weight (LMW) polypeptide component of the oxido reductase system of Penicillium chrysogenum (protein)
chain: T1 sequence
Regarding B1, the ACVS activity: dpm of labelled ACV produced from [14C]valine in assay [1] came out at 509 dpm.

B2: high molecular weight (HMW) polypeptide component of the oxido reductase system of Penicillium chrysogenum (enzyme)
chain: VHSKVVIIGSGPGAHTAAIYLSRAELQPVLYEGMLANGTAAGGQLTTTTDVENFPGFPSGIGGAELMDNMRAQSERFGTEIITETISKLDLSSRPFKMWTEWNDDEGSEPVRTADAVIIATGANARRLNLPGEETYWQNGISACAVCDGAVPIFRNKPLYVIGGGDSAAEEAMFLAKYGSSVTVLVRKDKLRASNIMADRLLAHPKCKVRFNTVATEVIGENKPNGLMTHLRVKDVLSNAEEVVEANGLFYAVGHDPASGLVKGQVELDDEGYIITKPGTSFTNVEGVFACGDVQDKRYRQAITSAGSGCVAALEAEKFIAETETHQEAKPVL
On to B2, for which the bis-ACV reductase activity: µmol NADPH oxidized per minute (340 nm) (µmol NADPH/minute) in assay [2] came to 2.25; in assay [3] it was 1.93. This molecule gave a production of isopenicillin N from bis-ACV by IPNS under non-reducing conditions: antibiotic µg/ml by bioassay on Micrococcus luteus in assay [4] of 72 µg/mL. Besides, the DTNB reductase activity: increase of absorbance at 412 nm after 15 minutes (absorbance at 412 nm) in assay [5] amounted to 0.225; in assay [6] it was 0.08.

B3: oxido reductase enzyme system of Penicillium chrysogenum (HMW and LMW components together, with NADPH) (enzyme)
chain 1: B2 chain
chain 2: T1 sequence
For the molecule B3, the KM for reduction of the protein disulphide in insulin in assay [7] is 2300 µM.
